Test results: US20180155451A1 (published 2018)

Target: T1, FcγRIIb extracellular domain with C-terminal His tag (human, UniProt P31994 43-217)
T1 construct: extracellular domain; Expressed in FreeStyle293 cells; used as analyte in Biacore; also called FcgRIIb; 2b; not shown: C-terminal His tag
T1 sequence (looked up): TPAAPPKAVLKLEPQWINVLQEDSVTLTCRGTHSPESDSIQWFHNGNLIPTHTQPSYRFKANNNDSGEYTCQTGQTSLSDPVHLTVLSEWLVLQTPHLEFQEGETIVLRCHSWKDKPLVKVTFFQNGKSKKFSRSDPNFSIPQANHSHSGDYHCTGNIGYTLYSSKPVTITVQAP
Experiment: SPR (Biacore), antibody captured on antigen-peptide chip, FcgRIIb as analyte; binding relative to GpH7-A5/GpH7-B3/GpL16-k0 (HeCon Ab) = 100

Row | Binder | He/Con_2b
1 | GpH7-A5/GpH7-B3 variant L328_06M/GpL16-k0 (He Ab) (antibody, human IgG1, kappa, Substitution in one H chain only; position in EU numbering; also called L328M heterodimerized antibody) heavy 1: not shown heavy 2: not shown light: DIVMTQSPLSLPVTPGEPASISCQASESLVHSNRNTYLHWYLQKPGQSPQLLIYKVSNRFSGVPDRFSGSGSGTDFTLKISRVEAEDVGVYYCSQNTHVPPTFGQGTKVEIERTVAAPSVFIFPPSDEQLKSGTASVVCLLNNFYPREAKVQWKVDNALQSGNSQESVTEQDSKDSTYSLSSTLTLSKADYEKHKVYACEVTHQGLSSPVTKSFNRGEC | 142 % of control
2 | GpH7-A5/GpH7-B3 variant P238_08L/GpL16-k0 (He Ab) (antibody, human IgG1, kappa, Substitution in one H chain only; position in EU numbering; also called P238L heterodimerized antibody) heavy 1: not shown heavy 2: not shown light: DIVMTQSPLSLPVTPGEPASISCQASESLVHSNRNTYLHWYLQKPGQSPQLLIYKVSNRFSGVPDRFSGSGSGTDFTLKISRVEAEDVGVYYCSQNTHVPPTFGQGTKVEIERTVAAPSVFIFPPSDEQLKSGTASVVCLLNNFYPREAKVQWKVDNALQSGNSQESVTEQDSKDSTYSLSSTLTLSKADYEKHKVYACEVTHQGLSSPVTKSFNRGEC | 204 % of control
3 | GpH7-A5/GpH7-B3 variant S239_08L/GpL16-k0 (He Ab) (antibody, human IgG1, kappa, Substitution in one H chain only; position in EU numbering; also called S239L heterodimerized antibody) heavy 1: not shown heavy 2: not shown light: DIVMTQSPLSLPVTPGEPASISCQASESLVHSNRNTYLHWYLQKPGQSPQLLIYKVSNRFSGVPDRFSGSGSGTDFTLKISRVEAEDVGVYYCSQNTHVPPTFGQGTKVEIERTVAAPSVFIFPPSDEQLKSGTASVVCLLNNFYPREAKVQWKVDNALQSGNSQESVTEQDSKDSTYSLSSTLTLSKADYEKHKVYACEVTHQGLSSPVTKSFNRGEC | 140 % of control
4 | GpH7-A5/GpH7-B3 variant S267_03V/GpL16-k0 (He Ab) (antibody, human IgG1, kappa, Substitution in one H chain only; position in EU numbering; also called S267V heterodimerized antibody) heavy 1: not shown heavy 2: not shown light: DIVMTQSPLSLPVTPGEPASISCQASESLVHSNRNTYLHWYLQKPGQSPQLLIYKVSNRFSGVPDRFSGSGSGTDFTLKISRVEAEDVGVYYCSQNTHVPPTFGQGTKVEIERTVAAPSVFIFPPSDEQLKSGTASVVCLLNNFYPREAKVQWKVDNALQSGNSQESVTEQDSKDSTYSLSSTLTLSKADYEKHKVYACEVTHQGLSSPVTKSFNRGEC | 192 % of control
5 | GpH7-A5/GpH7-B3 variant S239_09D/GpL16-k0 (He Ab) (antibody, human IgG1, kappa, Substitution in one H chain only; position in EU numbering; also called S239D heterodimerized antibody) heavy 1: not shown heavy 2: not shown light: DIVMTQSPLSLPVTPGEPASISCQASESLVHSNRNTYLHWYLQKPGQSPQLLIYKVSNRFSGVPDRFSGSGSGTDFTLKISRVEAEDVGVYYCSQNTHVPPTFGQGTKVEIERTVAAPSVFIFPPSDEQLKSGTASVVCLLNNFYPREAKVQWKVDNALQSGNSQESVTEQDSKDSTYSLSSTLTLSKADYEKHKVYACEVTHQGLSSPVTKSFNRGEC | 206 % of control
6 | GpH7-A5/GpH7-B3 variant S298_08L/GpL16-k0 (He Ab) (antibody, human IgG1, kappa, Substitution in one H chain only; position in EU numbering; also called S298L heterodimerized antibody) heavy 1: not shown heavy 2: not shown light: DIVMTQSPLSLPVTPGEPASISCQASESLVHSNRNTYLHWYLQKPGQSPQLLIYKVSNRFSGVPDRFSGSGSGTDFTLKISRVEAEDVGVYYCSQNTHVPPTFGQGTKVEIERTVAAPSVFIFPPSDEQLKSGTASVVCLLNNFYPREAKVQWKVDNALQSGNSQESVTEQDSKDSTYSLSSTLTLSKADYEKHKVYACEVTHQGLSSPVTKSFNRGEC | 108 % of control
7 | GpH7-A5/GpH7-B3 variant L328_07I/GpL16-k0 (He Ab) (antibody, human IgG1, kappa, Substitution in one H chain only; position in EU numbering; also called L328I heterodimerized antibody) heavy 1: not shown heavy 2: not shown light: DIVMTQSPLSLPVTPGEPASISCQASESLVHSNRNTYLHWYLQKPGQSPQLLIYKVSNRFSGVPDRFSGSGSGTDFTLKISRVEAEDVGVYYCSQNTHVPPTFGQGTKVEIERTVAAPSVFIFPPSDEQLKSGTASVVCLLNNFYPREAKVQWKVDNALQSGNSQESVTEQDSKDSTYSLSSTLTLSKADYEKHKVYACEVTHQGLSSPVTKSFNRGEC | 160 % of control
8 | GpH7-A5/GpH7-B3 variant S267_14T/GpL16-k0 (He Ab) (antibody, human IgG1, kappa, Substitution in one H chain only; position in EU numbering; also called S267T heterodimerized antibody) heavy 1: not shown heavy 2: not shown light: DIVMTQSPLSLPVTPGEPASISCQASESLVHSNRNTYLHWYLQKPGQSPQLLIYKVSNRFSGVPDRFSGSGSGTDFTLKISRVEAEDVGVYYCSQNTHVPPTFGQGTKVEIERTVAAPSVFIFPPSDEQLKSGTASVVCLLNNFYPREAKVQWKVDNALQSGNSQESVTEQDSKDSTYSLSSTLTLSKADYEKHKVYACEVTHQGLSSPVTKSFNRGEC | 104 % of control
9 | GpH7-A5/GpH7-B3 variant L328_15Y/GpL16-k0 (He Ab) (antibody, human IgG1, kappa, Substitution in one H chain only; position in EU numbering; also called L328Y heterodimerized antibody) heavy 1: not shown heavy 2: not shown light: DIVMTQSPLSLPVTPGEPASISCQASESLVHSNRNTYLHWYLQKPGQSPQLLIYKVSNRFSGVPDRFSGSGSGTDFTLKISRVEAEDVGVYYCSQNTHVPPTFGQGTKVEIERTVAAPSVFIFPPSDEQLKSGTASVVCLLNNFYPREAKVQWKVDNALQSGNSQESVTEQDSKDSTYSLSSTLTLSKADYEKHKVYACEVTHQGLSSPVTKSFNRGEC | 193 % of control
10 | GpH7-A5/GpH7-B3 variant P331_04F/GpL16-k0 (He Ab) (antibody, human IgG1, kappa, Substitution in one H chain only; position in EU numbering; also called P331F heterodimerized antibody) heavy 1: not shown heavy 2: not shown light: DIVMTQSPLSLPVTPGEPASISCQASESLVHSNRNTYLHWYLQKPGQSPQLLIYKVSNRFSGVPDRFSGSGSGTDFTLKISRVEAEDVGVYYCSQNTHVPPTFGQGTKVEIERTVAAPSVFIFPPSDEQLKSGTASVVCLLNNFYPREAKVQWKVDNALQSGNSQESVTEQDSKDSTYSLSSTLTLSKADYEKHKVYACEVTHQGLSSPVTKSFNRGEC | 110 % of control
11 | GpH7-A5/GpH7-B3 variant S267_07I/GpL16-k0 (He Ab) (antibody, human IgG1, kappa, Substitution in one H chain only; position in EU numbering; also called S267I heterodimerized antibody) heavy 1: not shown heavy 2: not shown light: DIVMTQSPLSLPVTPGEPASISCQASESLVHSNRNTYLHWYLQKPGQSPQLLIYKVSNRFSGVPDRFSGSGSGTDFTLKISRVEAEDVGVYYCSQNTHVPPTFGQGTKVEIERTVAAPSVFIFPPSDEQLKSGTASVVCLLNNFYPREAKVQWKVDNALQSGNSQESVTEQDSKDSTYSLSSTLTLSKADYEKHKVYACEVTHQGLSSPVTKSFNRGEC | 192 % of control
